In paper PMC6336796 (Nature Communications, 2019):

Target: T1, Flag-CENP-E (UniProt Q02224 1-2701)
T1 construct: CENP-E; Primers are in Supplementary Data 3; also called Flag-CENP-E protein; source: HEK293T, transfected, mitotic cells
Experiment: pull-down; Flag-CENP-E purified from mitotic HEK293T lysate and eluted with 3x Flag peptide, incubated with Myc-GFP or Myc-HOIP bound to anti-c-Myc affinity gel; blot with anti-Flag
Details: both partners purified

T1 sequence (Q02224 whole entry): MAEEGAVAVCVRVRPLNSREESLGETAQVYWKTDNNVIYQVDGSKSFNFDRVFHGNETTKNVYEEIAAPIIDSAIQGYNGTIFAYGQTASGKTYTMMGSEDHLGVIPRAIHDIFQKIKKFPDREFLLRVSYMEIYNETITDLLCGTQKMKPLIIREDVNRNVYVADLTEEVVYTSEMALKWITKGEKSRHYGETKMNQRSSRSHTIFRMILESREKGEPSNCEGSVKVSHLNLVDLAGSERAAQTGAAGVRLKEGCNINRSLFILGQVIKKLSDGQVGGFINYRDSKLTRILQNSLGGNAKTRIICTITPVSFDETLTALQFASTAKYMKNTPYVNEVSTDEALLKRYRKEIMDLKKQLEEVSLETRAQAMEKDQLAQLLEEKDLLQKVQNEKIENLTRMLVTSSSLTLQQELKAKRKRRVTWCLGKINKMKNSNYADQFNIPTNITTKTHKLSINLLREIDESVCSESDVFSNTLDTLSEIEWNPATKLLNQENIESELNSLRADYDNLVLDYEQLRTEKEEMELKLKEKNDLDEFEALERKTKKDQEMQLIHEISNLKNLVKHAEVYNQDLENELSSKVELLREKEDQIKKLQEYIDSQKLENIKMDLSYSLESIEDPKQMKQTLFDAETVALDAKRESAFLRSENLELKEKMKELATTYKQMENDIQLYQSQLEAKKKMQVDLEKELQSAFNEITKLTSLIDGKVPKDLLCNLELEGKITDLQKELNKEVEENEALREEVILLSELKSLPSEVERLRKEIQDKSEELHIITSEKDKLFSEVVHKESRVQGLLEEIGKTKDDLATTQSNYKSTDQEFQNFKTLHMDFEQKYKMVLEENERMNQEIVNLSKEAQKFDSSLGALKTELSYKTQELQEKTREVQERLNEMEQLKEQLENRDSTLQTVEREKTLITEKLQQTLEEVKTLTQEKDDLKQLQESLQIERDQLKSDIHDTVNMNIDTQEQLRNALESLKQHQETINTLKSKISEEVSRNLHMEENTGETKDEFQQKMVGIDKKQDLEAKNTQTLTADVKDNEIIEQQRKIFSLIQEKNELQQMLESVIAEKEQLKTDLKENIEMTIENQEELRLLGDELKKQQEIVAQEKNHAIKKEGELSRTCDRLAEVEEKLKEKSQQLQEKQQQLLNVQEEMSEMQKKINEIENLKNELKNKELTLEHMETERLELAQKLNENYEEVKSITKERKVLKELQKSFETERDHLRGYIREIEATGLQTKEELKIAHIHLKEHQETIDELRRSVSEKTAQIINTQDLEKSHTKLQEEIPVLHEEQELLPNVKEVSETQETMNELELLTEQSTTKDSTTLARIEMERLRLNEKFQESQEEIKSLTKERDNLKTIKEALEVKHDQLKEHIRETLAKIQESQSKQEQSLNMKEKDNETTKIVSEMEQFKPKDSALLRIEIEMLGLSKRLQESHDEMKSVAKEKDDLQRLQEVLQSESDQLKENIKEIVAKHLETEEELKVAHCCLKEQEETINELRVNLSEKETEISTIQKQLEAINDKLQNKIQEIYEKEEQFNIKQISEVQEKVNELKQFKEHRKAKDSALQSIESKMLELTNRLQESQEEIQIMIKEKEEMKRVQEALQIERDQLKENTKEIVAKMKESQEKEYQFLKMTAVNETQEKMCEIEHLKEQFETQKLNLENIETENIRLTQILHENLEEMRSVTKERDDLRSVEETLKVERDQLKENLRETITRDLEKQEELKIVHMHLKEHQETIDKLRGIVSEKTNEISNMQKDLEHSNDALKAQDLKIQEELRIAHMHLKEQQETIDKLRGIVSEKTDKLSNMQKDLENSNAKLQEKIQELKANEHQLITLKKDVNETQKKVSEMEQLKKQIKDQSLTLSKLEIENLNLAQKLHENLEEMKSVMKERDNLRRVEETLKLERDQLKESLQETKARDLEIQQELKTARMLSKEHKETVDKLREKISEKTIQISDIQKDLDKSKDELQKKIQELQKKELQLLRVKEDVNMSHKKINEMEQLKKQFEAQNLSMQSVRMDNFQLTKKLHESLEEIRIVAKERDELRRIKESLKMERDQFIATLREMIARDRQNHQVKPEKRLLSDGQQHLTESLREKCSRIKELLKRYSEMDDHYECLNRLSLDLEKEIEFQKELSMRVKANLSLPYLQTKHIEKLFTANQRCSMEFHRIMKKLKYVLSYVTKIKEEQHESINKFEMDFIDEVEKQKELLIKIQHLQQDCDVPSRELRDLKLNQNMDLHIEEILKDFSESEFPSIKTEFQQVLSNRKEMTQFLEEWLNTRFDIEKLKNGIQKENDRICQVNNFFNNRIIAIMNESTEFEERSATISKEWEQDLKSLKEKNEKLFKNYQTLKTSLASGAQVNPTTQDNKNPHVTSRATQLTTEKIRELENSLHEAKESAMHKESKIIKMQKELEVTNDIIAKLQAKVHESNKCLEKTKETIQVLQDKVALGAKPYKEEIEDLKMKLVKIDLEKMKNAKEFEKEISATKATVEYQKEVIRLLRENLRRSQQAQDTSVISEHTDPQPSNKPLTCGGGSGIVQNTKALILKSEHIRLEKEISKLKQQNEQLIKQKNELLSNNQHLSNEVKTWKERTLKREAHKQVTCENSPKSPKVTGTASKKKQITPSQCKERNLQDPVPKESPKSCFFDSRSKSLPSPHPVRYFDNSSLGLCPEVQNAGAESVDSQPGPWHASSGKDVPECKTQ

B1: Myc-HOIP (enzyme, UniProt Q96EP0 1-1072, looked up)
chain: MPGEEEERAFLVAREELASALRRDSGQAFSLEQLRPLLASSLPLAARYLQLDAARLVRCNAHGEPRNYLNTLSTALNILEKYGRNLLSPQRPRYWRGVKFNNPVFRSTVDAVQGGRDVLRLYGYTEEQPDGLSFPEGQEEPDEHQVATVTLEVLLLRTELSLLLQNTHPRQQALEQLLEDKVEDDMLQLSEFDPLLREIAPGPLTTPSVPGSTPGPCFLCGSAPGTLHCPSCKQALCPACDHLFHGHPSRAHHLRQTLPGVLQGTHLSPSLPASAQPRPQSTSLLALGDSSLSSPNPASAHLPWHCAACAMLNEPWAVLCVACDRPRGCKGLGLGTEGPQGTGGLEPDLARGRWACQSCTFENEAAAVLCSICERPRLAQPPSLVVDSRDAGICLQPLQQGDALLASAQSQVWYCIHCTFCNSSPGWVCVMCNRTSSPIPAQHAPRPYASSLEKGPPKPGPPRRLSAPLPSSCGDPEKQRQDKMREEGLQLVSMIREGEAAGACPEEIFSALQYSGTEVPLQWLRSELPYVLEMVAELAGQQDPGLGAFSCQEARRAWLDRHGNLDEAVEECVRTRRRKVQELQSLGFGPEEGSLQALFQHGGDVSRALTELQRQRLEPFRQRLWDSGPEPTPSWDGPDKQSLVRRLLAVYALPSWGRAELALSLLQETPRNYELGDVVEAVRHSQDRAFLRRLLAQECAVCGWALPHNRMQALTSCECTICPDCFRQHFTIALKEKHITDMVCPACGRPDLTDDTQLLSYFSTLDIQLRESLEPDAYALFHKKLTEGVLMRDPKFLWCAQCSFGFIYEREQLEATCPQCHQTFCVRCKRQWEEQHRGRSCEDFQNWKRMNDPEYQAQGLAMYLQENGIDCPKCKFSYALARGGCMHFHCTQCRHQFCSGCYNAFYAKNKCPEPNCRVKKSLHGHHPRDCLFYLRDWTALRLQKLLQDNNVMFNTEPPAGARAVPGGGCRVIEQKEVPNGLRDEACGKETPAGYAGLCQAHYKEYLVSLINAHSLDPATLYEVEELETATERYLHVRPQPLAGEDPPAYQARLLQKLTEEVPLGQSIPRRRK
notes: HOIP (RNF31) wild type; Construct supplied by Dr. Kazuhiro Iwai; also called RNF31; purified HOIP; source: HEK293T, transfected, mitotic cells
  binding result: binds
